In the DeepSol protein solubility set:

Assay: soluble on expression in E. coli; label from the status in PepcDB or PDB records

Sequence	soluble on expression in E. coli
MAHHHHHHMQQASAAASDEWRTKFGGGGASHDWQASKGNFTNQEFESYWGQKWPNWLKTEKATYPNAANKKWLEQNPPPKQGPAQAKTAKQLAVYAEEAAALARTYTEGITAAHGRELKAIKTALRAALYGTNKKTARAFRR	soluble
MAHHHHHHMQQSSLVRRNVFHYTTVLTACTRAGQMDAAMMVFRQMKANKVKPNVYTYTTLINGCANAEKLDLALRIFAEMRLVEVPPNVKTMTALISVCSRCGQWKKGFQVLDQCEDLFIAPNALTYTAAMDGCRRAGVCTPAIALLEARMTDPSQVRPNEVTYNTVLGACAAAKDHKAALRVYARMVADGYEPIEYTRELLREVFRGTSLDGLADKLMVRVRTSKWEAYVPDSDPATALRAAQEGG	not soluble
MAHHHHHHMQTLDINNSFAVPFDEDPQDAGVWFFDTNYAQEMFAMHKRVLPKVKVVGWYSSGPTIQPNDMLLHLLVADRFCLNPVYCVVNTDPNNKGVPVRAYTTVQGREGTRSLEFRNIPTHLGAEEAEEIGIEHLLRDLTDSTITTLSTQVQERELSLVHLCKVLQQIEEYLKDVGNAVMPISEDVLEVLQELISLQPEIYARRSSTEMIRHTNDEAIATFLAAIARCIGALHGVIMNRRKLARELQEIKDRRARAAETRLENEKMKIEEAAKEKDTNQA	soluble
MAHHHHHHMQVPPLTELSPSISVHLLLGNPSGATPTKLTPDNYLMVKNQYALSYNNSKGTANWVAWQLNSSWLGNAERQDNFRPDKTLPAGWVRVTPSMYSGSGYARGHIAPSADRTKTTEDNAATFLMTNMMPQTPDNNRNTWGNLEDYCRELVSQGKELYIVAGPNGSLGKPLKGKVTVPKSTWKIVVVLDSPGSGLEGITANTRVIAVNIPNDPELNNDWRAYKVSVDELESLTGYDFLSNVSPNIQTSIESKVDN	soluble
MAHHHHHHMQYQRAALVIASPALTQREVEFTKSAWLAGLRPDQRTAQQMREVSVEFPLLSRDVVVVRCGGSVVTAAIATALVEPTPQRPKHGLLHFSVRRLHTERDSPAADGSTQKNLVAFLERLVRTGGVIDTAGLCVLPGQKVWSLTVDVTIMNDEGNCNDAAVWAVIALLMHHRRPELTVRGSSVIVHPPHEREPVPLSVQHTPLPFTFAITMAPTEREKALNHQRALSATGSSSGPQPSSGVGNSIDTASAFAIDGTSPQPLGVVVDPTTAESLAAASSIVVAINAEGQVCTVVKAEGCSIHLKDLNACIEAAGTLAPRVLDLIKVAMEAHDERRKTAMKGQFAWAQKRSGVGKVEQACVKKIKTET	not soluble
MAHHHHHHMREKTTSAATPMRCRKELAATLTRTRNSPRTPVTFELATERGLHNFSRRGPRVRAKSSIAVHAATASPLSLLEQTLWTEIEQLNAATNRLRERILEVKREFSADAIAAVTGGEPLPVEARTGGLFRNPPKQRGQNSKDEPPYAVTFTPSHSQKKAANVRLQFTSPRKTPMKENDSSVLTSLAMFEYTPQNDDHREGARPTENRNVLQELKRDETFETGTPVHLSEAATMGGPFVVDLQKSDHGAANNTAEKPTELSTSVDSARESAKHLLLQANMMGVEQDLNHYMSDLLAIQRDTLDAQKRGLIDPNDSSVRELRLGIRDELNACRARILTLESLQTSLSAGVATKKTIS	not soluble
MAHHHHHHMRFVFRRLLPASTAAVAAPPSLLSMRGAPSFVHPPAEEAIGKDVRATPANWVTAYVLPEVITEQEEKTLLDFSEPWFERLSYNDGHMDGLIHHYKEFYRSYAAITQAAETGSDAGLNMPHANLEVDLPLVSEALARAHDLAQTYLPCIPIDDRVHFLRLAGSGFIRAHVDESRNSTGIVAGLCLNAGRVMTLTHPAYPGERVELMLAPRCLYILIGRARYDWAHSVDWVGDDDEHIRRIQKSLAVEGTPIRFDGAETPYRRSDRTAIIFRGVSPMTLLVRRMRQRG	not soluble
MAHHHHHHMRKIYIAGPAVFNPDMGASYYNKVRELLKKENVMPLIPTDNEATGALDIRQKNIQMIKDCDAVIADLSPFRGHEPDCGTAFEVGYAAALNKMVLTFTSDRRNMREKYGSEVDKDNLRVEGFGLPFNLMLYDGVEVFDSFESAFKYFLANFPSK	soluble
MAHHHHHHMRLLRLSTKVGMESNNAALRAHLLSLRGTEPVGDPKNPLHVQLQIHDGHRNTLLSHTKELYVTALQHHPETFVNVIPLLPLSDDESSPSNDGGASNDSITLFNAASMTADRGFTPLFSHVALGGTFDRLHAGHKLLLTTALFYASKSLRIGVTLESMLKKKTYGSYIEPFETRCKLVSEFLYSVRRDIDVTVVGITEPSGGTNRDAEIEALVVSPETAGVLASINDERASYGLKPLECIQIPYVSAEGDGRVSSTELRRRLHENASGAN	soluble
MAHHHHHHMRNGPKVLIALGNELKRGAASHQCKGDVARMYVNYLRQRYSMDEWNHVSNVNSFICEKNNIILIKPVTSLEKNSGLAIKNILNYLNCEDLKNVCIILPDLYRSIGKFKYKSYTKIYEKLGPDFYNILNSNIINNVLCNHFLQLCIGVSNYPNETKNAVAIALQECLSDGELKKIFKTFQLAEEYFHKKIMNGKVITTNYIHFKEKYPAMEPQKSFRRSTASRRYILDVYRHMYK	not soluble
MAHHHHHHMRRCFKLQAPPGVLSILSDLAQPRTSTSYQELLRNSHLPAQPLPFLPPPRWAAELSRVLHRTFPDVVQHHHTRFLQVFVHPSFTTAAGVSGTMQPLVAVGESLLERIGGLWILATFESTRREEYASLLALLTSDTALCRVLRDHWRLEHMVLTDASADLFSRQRLSSTKGLVCWLSSHGNVNGAQSLPEPFGAGCVKAMVAAVLLEHGNDAAEHFVKSEVLPYVL	not soluble
MAHHHHHHMRSLPNIIVTGVPGVGKTTLCEELVEVINKELQEGQQAEPANQMKHLNLSKVIKEERLYEEFDDQLDATIYSNDMVNEKMEKLKLENGGYIIDFHDVDFLEQKELIDHIFLLTTSTNKLYERLEKRNYAKEKIKNNIECEIFQVIKEDILTFYNDPSIFDELGNNDMEQYESNLQLIKGWVLSWAKSGEALPR	soluble
MAHHHHHHMRTHKTHAYIQAHCLCDFYLTYCAGWVGAIKADGSGQPREPSNGVFGCVRDYIFHQMLDAVHGSSKVFFCDAHAAAVLNCSLRLHDLMERGVTLLEDLMAPRQPIMSSFTPYFFAVEDACVSCVVEDWMAKVPYRDVHIFALGCAPHRSPQQLPRSRIAPRVMRFKEMMLDFTATEALVFHPNMQNGLPQLLSPLSPPT	not soluble
MAHHHHHHMRVIIQRVKNAALSVIKEESKETEKQLELFSEIKNGIICFVGIHKNDTWKDAMYIIRKCLNLRLWSDGNKSWDKSVKDLNYEILFVSQFTLFANTKKGNKPDFHLAKEPKEALAMYNKMVEQFAKDYNHEKIKTGKFGCYMNIQVTNDGPVTIFIDSHDVNLDN	not soluble
MAHHHHHHMSAAGRLIRIRKKSKWIDRRSKRIPHNGKDVWQFGEQPSCALCHVRFRFKQDYEAHKESELHQNRLRWVETMKWWEEIGEPHHQQHAASEWEWFRQRVLPAKAAAMGLSEEDAARELRRAVMHETPRWYSRIQPPNARSEIKEPRDQRWPSSPKW	not soluble
MAHHHHHHMSDNFFIPTFEHIYEQSIPPPLIKHSRKCKNYNKKRKNIIKYTSQDICVEQRNYDKENKEHKYVCINFHTFNKKCYHKNIRLLDHTHLDFTLGESLMYLLNAIIEVISKLKEGKEYKWNIKGKLINSKKENNIQIVYIENAFLSFKSIVLHAPLLKIKSIDI	not soluble
MAHHHHHHMSEEKGAYLVFDNASNGTLFIVWKKEKVENALMFIKPTKEVPEFKFVNRNGKNELIRNLQSDKKLFYSGICQFVKEAKDIKGKLTLLQHFDSSFPIKVDLYFLKGSKVMPLNTGEPFVVQDIDAMSVLPKGSSSLKVKTMAKDMFVSRGNTEGASISF	not soluble
MAHHHHHHMSEGGRRRKVYGFKAERQAFFSKHVRQTFLEEGRKKKDEERARMEAYRKLCEEEGIVSKRLEDYDRTRKAAKEHLSSTLEQIDYDQSLTNNEKKKRKYNLKRKFAATTVNDLIDKQQKHYSAVSGMEEVQRRQQQEREEKQKARQEREREKQSRVQARKSRNALFAKRTKKGQPAMSSRVESLLQKISWQ	not soluble
MAHHHHHHMSESPMCLFIACSTRDNTSREYIYTILKNRLLGSHVCIDTNILDVPTNLKFCSFDDLLKCADDLQKYDSYAYGCLKKIEKLAKEYDENIELKIIYQRQHINIDQYIRRFTWDDAKYPRNRSLTDTIDVMVNNITKLSDEIHIKSSMLNDLKEKKKKDIPKTDTNNFFLKNLNEILTPQTVSQADFMETEYLTTLIAYIPKNSVDEWLASYEKFSQYVVPRSTEQFKGLVDKDGNTLWKVYVFKKFAESFKEAAKLKKFVVKSFKYDEQKYNDVMESRTKVEAEIIRQETFLRRMCLAAFSDIFSAFIHINILRVFCESVLRFGVPPNFASFSIRINGESKEKKVRKKLYDIFSSTDSIGKNYIKRSDENDEEIYPYVSVSFKI	not soluble
MAHHHHHHMSFHPRDAFILHQEYIQRLNEGDEVDTSAEQKVELNLQRHADSESAATVTFSHEDHTLGNPLRHVIMEDPSVTSAGYAIPHPLEAKMQLHVQSSEYAVETVAKGLERLAAICDETLKSFNACVEAISAEDPEGH	not soluble
MAHHHHHHMSLADPHPLEAATTPASSLSNSIRLALLPASMKLPRDKSSSPELLAVFLPPDFCCMSVKSSTQNSSLFSSGISTVSPGRGCSVMEWRAIMQPVLLSLFKHWSVAAIRPGLFRRFCVGDVLFARERKLANSTPSAPCVNFPHRSTRVGAPRALRADCSSSSSSCKERKRHEWQDSRASESQEASPLLETSLPLLLWSSG	soluble
MAHHHHHHMSLNAAAAADERSRKEMDRFQVERMAGQGTFGTVQLGKEKSTGMSVAIKKVIQDPRFRNRELQIMQDLAVLHHPNIVQLQSYFYTLGERDRRDIYLNVVMEYVPDTLHRCCRNYYRRQVAPPPILIKVFLFQLIRSIGCLHLPSVNVCHRDIKPHNVLVNEADGTLKLCDFGSAKKLSPSEPNVAYICSRYYRAPELIFGNQHYTTAVDIWSVGCIFAEMMLGEPIFRGDNSAGQLHEIVRVLGCPSREVLRKLNPSHTDVDLYNSKGIPWSNVFSDHSLKDAKEAYDLLSALLQYLPEERMKPYEALCHPYFDELHDPATKLPNNKDLPEDLFRFLPNEIEVMSEAQKAKLVRK	soluble
MAHHHHHHMSLPPRGPSSPPAKCPQECVASSCVSLPITPPCIARRVLPLFPPPGWHMYDAYRNCFQYRPDVQRKLVKAVQRERHLRHLAAPHAGDAATSSAEVSAAVLRKEVMEMDSTCCCCALDAAHLFATPEDMPTPPLPLSRCELHEVLLALSPRWQSYPWRLCFDTASDGFSLSSLYRCMEAVDAKQSQVKTVAFGLFFVHSREDAALTNAQTASPVDSLSASSTSPSYALWPPTAGAPHSFCEAHHSSSRRYGAAHGALQHSVLGCFTPEVPCLGRHAANIYFGSTDTFVFRLDQLSCAPSRGAWMATDVEKKQSSQRAQQQEQQQQHGKAAEPHTCAPATSTRAVGAAPAYGYAKLALADDDIAGVPVPMPSRVTIEHAGDSKHAVDKSMVHSSPLLPPSEVPPLLNPSPLRAAVVSSSNAAAMSSVHGAPDIVVPSPRGRWHRLLRPVQPARVVPHAPLLEKFTWCGNMHNRKFIVCNPHFFAIGGGQSGAALYVDEALQYGTSSTWCETFNAPCLFGPRMGSADVSSVPSLVQSYMSGNDSPSGGPARPTSGLPHVEFAISRVVWFSVTEDKRTLRMMSAADASLPSAEAHRCGCGRFSCASASHTTTLDPMSTEKSTAPSPPPASTFLHQCDLLPFAAPM	not soluble
MAHHHHHHMSLTKGSKAAQDVISFLHTVGRLKVTARQGWVENQICSPESVSDHMYRMSLMCMMCPDTSLNRDRMVKMALCHDTGESIIGDISPAMKVPKEVKKQQESQAVQSLCKLVSSSPNTTFSKELGDLFEEYEAQETAESHFVKDMDLLEMVVQAHSYESANPGKDLGSFFRSGANIHHPWARAIYETLLETRPYLAYKEEQAKEASSI	soluble
